# Values quoted from earlier work as cited in paper PMC9238359.
# Legend:
# Test in all cases: ITC
# [1] = biological target: STX4 N-terminal peptide (UniProt Q12846)
# [2] = biological target: STX4 soluble (lacks TMD) (UniProt Q12846)
# [3] = biological target: STX4 soluble lacking N-terminal peptide (UniProt Q12846)
substance,measurement,setting,value
Munc18c (from UniProt O00186),Kd,[1],1500 nM
same,Kd,[2],12 nM
same,Kd,[3],735 nM
